Series [1] concerns the target T1, bDHFR (Bos taurus, UniProt P00376).
T1 sequence (P00376 1-187): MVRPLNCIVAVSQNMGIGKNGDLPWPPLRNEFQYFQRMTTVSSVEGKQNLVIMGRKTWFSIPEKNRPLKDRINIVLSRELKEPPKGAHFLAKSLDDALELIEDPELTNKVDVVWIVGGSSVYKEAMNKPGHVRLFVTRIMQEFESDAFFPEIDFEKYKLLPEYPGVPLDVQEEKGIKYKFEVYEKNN
Nature of the series: spectrophotometric DHFR assay at […] nm. In kind it is biochemical.

In series [2] the target is T1, bDHFR. Nature of the series: spectrophotometric DHFR assay at […] nm. In kind it is biochemical. Conditions: read-out: % inhibition after preincubation with 0.68 mM.
The target of a further series is T2, mDHFR (Mus musculus, UniProt P00375).
T2 sequence (P00375 1-187): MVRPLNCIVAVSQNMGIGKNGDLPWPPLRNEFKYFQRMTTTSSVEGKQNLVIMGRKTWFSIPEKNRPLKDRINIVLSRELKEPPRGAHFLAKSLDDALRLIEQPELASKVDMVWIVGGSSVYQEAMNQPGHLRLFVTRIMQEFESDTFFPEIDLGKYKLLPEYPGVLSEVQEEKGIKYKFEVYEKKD
Nature of the series: spectrophotometric DHFR assay at […] nm. In kind it is biochemical. Conditions: read-out: % inhibition at 122 μM.

Substrate in series [3]: Nc1nc2c(c(=O)[nH]1)N=C(CNc1ccc(C(=O)N[C@@H](CCC(=O)O)C(=O)O)cc1)CN2
Nature of the series: purified protein. Conditions: 37 °C, KCl, co-substrate NADPH.

Substrate in series [4]: NC(=O)C1=CN([C@@H]2O[C@H](COP(=O)(O)OP(=O)(O)OC[C@H]3O[C@@H](n4cnc5c(N)ncnc54)[C@H](OP(=O)(O)O)[C@@H]3O)[C@@H](O)[C@H]2O)C=CC1
Nature of the series: purified protein. Conditions: 37 °C, KCl, co-substrate DHFA, varied: cofactor. In kind it is biochemical, Mus musculus.

Substrate in series [5]: NC(=O)C1=CN([C@@H]2O[C@H](COP(=O)(O)OP(=O)(O)OC[C@H]3O[C@@H](n4cnc5c(N)ncnc54)[C@H](OP(=O)(O)O)[C@@H]3O)[C@@H](O)[C@H]2O)C=CC1
Nature of the series: purified protein. In kind it is biochemical, Bos taurus. Conditions: 37 °C, KCl, co-substrate DHFA, varied: cofactor.

As a reminder, the Ki is a measure of affinity in units of concentration, obtained from inhibition or displacement. For the molecule `CNCCC=C1c2ccccc2CCc2ccccc21` [nortriptyline], the inhibition constant Ki at bDHFR [1] amounted to 840 ± 250 nM.

Broadly, the inhibition is the share of the control response that was lost under treatment. Consider `O=C(O[C@@H]1Cc2c(O)cc(O)cc2O[C@@H]1c1cc(O)c(O)c(O)c1)c1cc(O)c(O)c(O)c1` [EGCG], for which the inhibition at 680 µM on bDHFR [2] was found to be 26%. Moreover, at mDHFR, the inhibition at 122 µM amounted to 18%.

B1: mDHFR (Mus musculus) (protein)
chain: MVRPLNCIVAVSQNMGIGKNGDLPWPPLRNEFKYFQRMTTTSSVEGKQNLVIMGRKTWFSIPEKNRPLKDRINIVLSRELKEPPRGAHFLAKSLDDALRLIEQPELASKVDMVWIVGGSSVYQEAMNQPGHLRLFVTRIMQEFESDTFFPEIDLGKYKLLPEYPGVLSEVQEEKGIKYKFEVYEKKD
As a reminder, the Km is the concentration of substrate that gives half-maximal velocity. In general, kcat refers to the maximal rate divided by the concentration of active sites. As a reminder, the kcat/Km is the turnover number divided by the Michaelis constant. Take B1: in “purified protein [3]”, the Km was determined as 0.32 ± 0.05 µM, the kcat turned out to be 29 ± 5 s⁻¹ and the catalytic efficiency (kcat/Km) turned out to be 9.2e+07 M⁻¹ s⁻¹. In the series “purified protein [4]”, the Km is given as 2.4 ± 0.5 µM and the kcat is 29 ± 5 s⁻¹.

B2: hDHFR (Homo sapiens) (protein)
chain: MVGSLNCIVAVSQNMGIGKNGDLPWPPLRNEFRYFQRMTTTSSVEGKQNLVIMGKKTWFSIPEKNRPLKGRINLVLSRELKEPPQGAHFLSRSLDDALKLTEQPELANKVDMVWIVGGSSVYKEAMNHPGHLKLFVTRIMQDFESDTFFPEIDLEKYKLLPEYPGVLSDVQEEKGIKYKFEVYEKND
Regarding B2, in “purified protein [3]”, the Km turned out to be 2.7 ± 0.5 µM, the kcat was 40 ± 2 s⁻¹ and the kcat/Km is 1.5e+07 M⁻¹ s⁻¹.

B3: bDHFR (Bos taurus) (protein)
chain: MVRPLNCIVAVSQNMGIGKNGDLPWPPLRNEFQYFQRMTTVSSVEGKQNLVIMGRKTWFSIPEKNRPLKDRINIVLSRELKEPPKGAHFLAKSLDDALELIEDPELTNKVDVVWIVGGSSVYKEAMNKPGHVRLFVTRIMQEFESDAFFPEIDFEKYKLLPEYPGVPLDVQEEKGIKYKFEVYEKNN
As to B3, in the series “purified protein [3]”, the Michaelis-Menten constant (Km) worked out at 0.35 ± 0.13 µM, the turnover number (kcat) was 24 ± 7 s⁻¹ and the kcat/Km was determined as 6.8e+07 M⁻¹ s⁻¹. Besides, in “purified protein [5]”, the Km amounted to 3.2 ± 0.6 µM and the turnover number (kcat) was determined as 24 ± 7 s⁻¹.

The values are drawn from publication PMC2575037 (Protein expression and purification, 2008).
